Experiments:
[1] = biological target: T1, F8 (peptide-Fc fusion derived from the extracellular domain of human CD38) (human, UniProt P0DOX5 223-449 = IgG part); test: SPR, antibody immobilized, peptide-Fc fusion injected
T1 construct: As F1; by count CD38 residues 134-146

[2] = biological target: T2, F1 (peptide-Fc fusion derived from the extracellular domain of human CD38) (human, UniProt P0DOX5 223-449 = IgG part); test: as above
T2 construct: 13-residue peptide fused to human IgG1 Fc (CH2-CH3) with an Ala-Ser linker; by count CD38 residues 43-55

[3] = biological target: T3, F17 (peptide-Fc fusion derived from the extracellular domain of human CD38) (human, UniProt P0DOX5 223-449 = IgG part); test: as above
T3 construct: As F1; by count CD38 residues 251-263

[4] = biological target: T4, F20 (peptide-Fc fusion derived from the extracellular domain of human CD38) (human, UniProt P0DOX5 223-449 = IgG part); test: as above
T4 construct: Final peptide of 11 amino acids, else as F1; by count CD38 residues 290-300

[5] = biological target: T5, F5 (peptide-Fc fusion derived from the extracellular domain of human CD38) (human, UniProt P0DOX5 223-449 = IgG part); test: as above
T5 construct: As F1; by count CD38 residues 95-107

[6] = biological target: T6, F2 (peptide-Fc fusion derived from the extracellular domain of human CD38) (human, UniProt P0DOX5 223-449 = IgG part); test: as above
T6 construct: As F1; by count CD38 residues 56-68

[7] = biological target: T7, F13 (peptide-Fc fusion derived from the extracellular domain of human CD38) (human, UniProt P0DOX5 223-449 = IgG part); test: as above
T7 construct: As F1; by count CD38 residues 199-211

[8] = biological target: T8, F3 (peptide-Fc fusion derived from the extracellular domain of human CD38) (human, UniProt P0DOX5 223-449 = IgG part); test: as above
T8 construct: As F1; by count CD38 residues 69-81; also called F3 construct

[9] = biological target: T9, F7 (peptide-Fc fusion derived from the extracellular domain of human CD38) (human, UniProt P0DOX5 223-449 = IgG part); test: as above
T9 construct: As F1; by count CD38 residues 121-133

[10] = biological target: T10, F4 (peptide-Fc fusion derived from the extracellular domain of human CD38) (human, UniProt P0DOX5 223-449 = IgG part); test: as above
T10 construct: As F1; by count CD38 residues 82-94

[11] = biological target: T11, F9 (peptide-Fc fusion derived from the extracellular domain of human CD38) (human, UniProt P0DOX5 223-449 = IgG part); test: as above
T11 construct: As F1; by count CD38 residues 147-159

[12] = biological target: T12, F16 (peptide-Fc fusion derived from the extracellular domain of human CD38) (human, UniProt P0DOX5 223-449 = IgG part); test: SPR, humanized 9G7 immobilized on the chip, peptide-Fc fusion injected
T12 construct: As F1; by count CD38 residues 238-250

[13] = biological target: T13, F12 (peptide-Fc fusion derived from the extracellular domain of human CD38) (human, UniProt P0DOX5 223-449 = IgG part); test: as above
T13 construct: As F1; by count CD38 residues 186-198

[14] = biological target: T14, F19 (peptide-Fc fusion derived from the extracellular domain of human CD38) (human, UniProt P0DOX5 223-449 = IgG part); test: as above
T14 construct: As F1; by count CD38 residues 277-289

[15] = biological target: T15, F10 (peptide-Fc fusion derived from the extracellular domain of human CD38) (human, UniProt P0DOX5 223-449 = IgG part); test: as above
T15 construct: As F1; by count CD38 residues 160-172

[16] = biological target: T16, F14 (peptide-Fc fusion derived from the extracellular domain of human CD38) (human, UniProt P0DOX5 223-449 = IgG part); test: as above
T16 construct: As F1; by count CD38 residues 212-224

[17] = biological target: T17, F15 (peptide-Fc fusion derived from the extracellular domain of human CD38) (human, UniProt P0DOX5 223-449 = IgG part); test: as above
T17 construct: As F1; by count CD38 residues 225-237

[18] = biological target: T18, F11 (peptide-Fc fusion derived from the extracellular domain of human CD38) (human, UniProt P0DOX5 223-449 = IgG part); test: as above
T18 construct: As F1; by count CD38 residues 173-185

[19] = biological target: T19, F18 (peptide-Fc fusion derived from the extracellular domain of human CD38) (human, UniProt P0DOX5 223-449 = IgG part); test: as above
T19 construct: As F1; by count CD38 residues 264-276

binding result [1]: no binding (tested: 15 nM; 200 nM) | binding result [2]: no binding (tested: 15 nM; 200 nM) | binding result [3]: no binding (tested: 15 nM; 200 nM) | binding result [4]: no binding (tested: 15 nM; 200 nM) | binding result [5]: no binding (tested: 15 nM; 200 nM) | binding result [6]: no binding (tested: 15 nM; 200 nM) | binding result [7]: no binding (tested: 15 nM; 200 nM) | binding result [8]: no binding (tested: 15 nM; 200 nM) | binding result [9]: no binding (tested: 15 nM; 200 nM) | binding result [10]: no binding (tested: 15 nM; 200 nM) | binding result [11]: no binding (tested: 15 nM; 200 nM) | binding result [12]: no binding (tested: 15 nM) | binding result [13]: no binding (tested: 15 nM) | binding result [14]: no binding (tested: 15 nM) | binding result [15]: no binding (tested: 15 nM) | binding result [16]: no binding (tested: 15 nM) | binding result [17]: no binding (tested: 15 nM) | binding result [18]: no binding (tested: 15 nM) | binding result [19]: no binding (tested: 15 nM)
B1: humanized 9G7 antibody (best-fit version) as used in Example 10 (antibody, human IgG1, kappa, V domains shown)
VH: QVTLKESGPTLVKPTQTLTLTCTFSGLSLSTSGKGVGWIRQPPGKALEWLAHIWWDDDKRYNPALKSRLTITKDTSKNQVVLTMTNMDPVDTATYYCARIELGRSYVMDYWGQGTLVTVSS
VL: DIQMTQSPSSLSASVGDRVTITCQASQDVITSVAWFQQKPGKAPKLLIYSASYRYTGVPSRFSGSGSGTDFTFTISSLQPEDIATYYCQQHYTIPLTFGQGTKLEIKR
notes: also called h9G7
